Test results published in patent publication US20110091994A1, “Methods for Screening Compounds for Treating and/or Preventing an Hepatitis C Virus Infection” (priority 2008, published 2011).
Where two headings read alike, the source gives them in different places.

B1: EFEMP2 (protein, UniProt O95967 24-443, looked up)
EGF-containing fibulin-like …: SASPQDSEEPDSYTECTDGYEWDPDSQHCRDVNECLTIPEACKGEMKCINHYGGYLCLPRSAAVINDLHGEGPPPPVPPAQHPNPCPPGYEPDDQDSCVDVDECAQALHDCRPSQDCHNLPGSYQCTCPDGYRKIGPECVDIDECRYRYCQHRCVNLPGSFRCQCEPGFQLGPNNRSCVDVNECDMGAPCEQRCFNSYGTFLCRCHQGYELHRDGFSCSDIDECSYSSYLCQYRCINEPGRFSCHCPQGYQLLATRLCQDIDECESGAHQCSEAQTCVNFHGGYRCVDTNRCVEPYIQVSENRCLCPASNPLCREQPSSIVHRYMTITSERSVPADVFQIQATSVYPGAYNAFQIRAGNSQGDFYIRQINNVSAMLVLARPVTGPREYVLDLEMVTMNSLMSYRASSVLRLTVFVGAYTF
B2: DPF1 (protein, UniProt Q92782 1-387, looked up)
Zinc finger protein neuro-d4: MATVIPGPLSLGEDFYREAIEHCRSYNARLCAERSLRLPFLDSQTGVAQNNCYIWMEKTHRGPGLAPGQIYTYPARCWRKKRRLNILEDPRLRPCEYKIDCEAPLKKEGGLPEGPVLEALLCAETGEKKIELKEEETIMDCQKQQLLEFPHDLEVEDLEDDIPRRKNRAKGKAYGIGGLRKRQDTASLEDRDKPYVCDICGKRYKNRPGLSYHYTHTHLAEEEGEENAERHALPFHRKNNHKQFYKELAWVPEAQRKHTAKKAPDGTVIPNGYCDFCLGGSKKTGCPEDLISCADCGRSGHPSCLQFTVNMTAAVRTYRWQCIECKSCSLCGTSENDDQLLFCDDCDRGYHMYCLSPPMAEPPEGSWSCHLCLRHLKEKASAYITLT
B3: FBLN5 (protein, UniProt Q9UBX5 24-448, looked up)
Fibulin-5: QAQCTNGFDLDRQSGQCLDIDECRTIPEACRGDMMCVNQNGGYLCIPRTNPVYRGPYSNPYSTPYSGPYPAAAPPLSAPNYPTISRPLICRFGYQMDESNQCVDVDECATDSHQCNPTQICINTEGGYTCSCTDGYWLLEGQCLDIDECRYGYCQQLCANVPGSYSCTCNPGFTLNEDGRSCQDVNECATENPCVQTCVNTYGSFICRCDPGYELEEDGVHCSDMDECSFSEFLCQHECVNQPGTYFCSCPPGYILLDDNRSCQDINECEHRNHTCNLQQTCYNLQGGFKCIDPIRCEEPYLRISDNRCMCPAENPGCRDQPFTILYRDMDVVSGRSVPADIFQMQATTRYPGAYYIFQIKSGNEGREFYMRQTGPISATLVMTRPIKGPREIQLDLEMITVNTVINFRGSSVIRLRIYVSQYPF
B4: FAM120B (protein, UniProt Q96EK7 1-910, looked up)
Constitutive coactivator of …: MGVRGLQGFVGSTCPHICTVVNFKELAEHHRSKYPGCTPTIVVDAMCCLRYWYTPESWICGGQWREYFSALRDFVKTFTAAGIKLIFFFDGMVEQDKRDEWVKRRLKNNREISRIFHYIKSHKEQPGRNMFFIPSGLAVFTRFALKTLGQETLCSLQEADYEVASYGLQHNCLGILGEDTDYLIYDTCPYFSISELCLESLDTVMLCREKLCESLGLCVADLPLLACLLGNDIIPEGMFESFRYKCLSSYTSVKENFDKKGNIILAVSDHISKVLYLYQGEKKLEEILPLGPNKALFYKGMASYLLPGQKSPWFFQKPKGVITLDKQVISTSSDAESREEVPMCSDAESRQEVPMCTGPESRREVPVYTDSEPRQEVPMCSDPEPRQEVPTCTGPESRREVPMCSDPEPRQEVPMCTGPEARQEVPMYTDSEPRQEVPMYTDSEPRQEVPMYTGSEPRQEVPMYTGPESRQEVPMYTGPESRQEVLIRTDPESRQEIMCTGHESKQEVPICTDPISKQEDSMCTHAEINQKLPVATDFEFKLEALMCTNPEIKQEDPTNVGPEVKQQVTMVSDTEILKVARTHHVQAESYLVYNIMSSGEIECSNTLEDELDQALPSQAFIYRPIRQRVYSLLLEDCQDVTSTCLAVKEWFVYPGNPLRHPDLVRPLQMTIPGGTPSLKILWLNQEPEIQVRRLDTLLACFNLSSSREELQAVESPFQALCCLLIYLFVQVDTLCLEDLHAFIAQALCLQGKSTSQLVNLQPDYINPRAVQLGSLLVRGLTTLVLVNSACGFPWKTSDFMPWNVFDGKLFHQKYLQSEKGYAVEVLLEQNRSRLTKFHNLKAVVCKACMKENRRITGRAHWGSHHAGRWGRQGSSYHRTGSGYSRSSQGQPWRDQGPGSRQYEHDQWRRY
B5: FBLN1 (protein, UniProt P23142 30-703, looked up)
Fibulin-1: DVLLEACCADGHRMATHQKDCSLPYATESKECRMVQEQCCHSQLEELHCATGISLANEQDRCATPHGDNASLEATFVKRCCHCCLLGRAAQAQGQSCEYSLMVGYQCGQVFQACCVKSQETGDLDVGGLQETDKIIEVEEEQEDPYLNDRCRGGGPCKQQCRDTGDEVVCSCFVGYQLLSDGVSCEDVNECITGSHSCRLGESCINTVGSFRCQRDSSCGTGYELTEDNSCKDIDECESGIHNCLPDFICQNTLGSFRCRPKLQCKSGFIQDALGNCIDINECLSISAPCPIGHTCINTEGSYTCQKNVPNCGRGYHLNEEGTRCVDVDECAPPAEPCGKGHRCVNSPGSFRCECKTGYYFDGISRMCVDVNECQRYPGRLCGHKCENTLGSYLCSCSVGFRLSVDGRSCEDINECSSSPCSQECANVYGSYQCYCRRGYQLSDVDGVTCEDIDECALPTGGHICSYRCINIPGSFQCSCPSSGYRLAPNGRNCQDIDECVTGIHNCSINETCFNIQGGFRCLAFECPENYRRSAATLQQEKTDTVRCIKSCRPNDVTCVFDPVHTISHTVISLPTFREFTRPEEIIFLRAITPPHPASQANIIFDITEGNLRDSFDIIKRYMDGMTVGVVRQVRPIVGPFHAVLKLEMNYVVGGVVSHRNVVNVHIFVSEYWF
B6: DEAF1 (protein, UniProt O75398 1-565, looked up)
Deformed epidermal …: MEDSDSAAKQLGLAEAAAVAAAAAVAAAAAAAAGGEAEEPVLSRDEDSEEDADSEAERETPRVTAVAVMAAEPGHMDMGAEALPGPDEAAAAAAFAEVTTVTVANVGAAADNVFTTSVANAASISGHVLSGRTALQIGDSLNTEKATLIVVHTDGSIVETTGLKGPAAPLTPGPQSPPTPLAPGQEKGGTKYNWDPSVYDSELPVRCRNISGTLYKNRLGSGGRGRCIKQGENWYSPTEFEAMAGRASSKDWKRSIRYAGRPLQCLIQDGILNPHAASCTCAACCDDMTLSGPVRLFVPYKRRKKENELPTTPVKKDSPKNITLLPATAATTFTVTPSGQITTSGALTFDRASTVEATAVISESPAQGDVFAGATVQEASVQPPCRASHPEPHYPGYQDSCQIAPFPEAALPTSHPKIVLTSLPALAVPPPTPTKAAPPALVNGLELSEPRSWLYLEEMVNSLLNTAQQLKTLFEQAKHASTYREAATNQAKIHADAERKEQSCVNCGREAMSECTGCHKVNYCSTFCQRKDWKDHQHICGQSAAVTVQADEVHVAESVMEKVTV
B7: FBLN2 (protein, UniProt P98095 28-1184, looked up)
Fibulin-2: APRQDCTGVECPPLENCIEEALEPGACCATCVQQGCACEGYQYYDCLQGGFVRGRVPAGQSYFVDFGSTECSCPPGGGKISCQFMLCPELPPNCIEAVVVADSCPQCGQVGCVHAGHKYAAGHTVHLPPCRACHCPDAGGELICYQLPGCHGNFSDAEEGDPERHYEDPYSYDQEVAEVEAATALGGEVQAGAVQAGAGGPPAALGGGSQPLSTIQAPPWPAVLPRPTAAAALGPPAPVQAKARRVTEDSEEEEEEEEEREEMAVTEQLAAGGHRGLDGLPTTAPAGPSLPIQEERAEAGARAEAGARPEENLILDAQATSRSTGPEGVTHAPSLGKAALVPTQAVPGSPRDPVKPSPHNILSTSLPDAAWIPPTREVPRKPQVLPHSHVEEDTDPNSVHSIPRSSPEGSTKDLIETCCAAGQQWAIDNDECLEIPESGTEDNVCRTAQRHCCVSYLQEKSCMAGVLGAKEGETCGAEDNDSCGISLYKQCCDCCGLGLRVRAEGQSCESNPNLGYPCNHVMLSCCEGEEPLIVPEVRRPPEPAAAPRRVSEAEMAGREALSLGTEAELPNSLPGDDQDECLLLPGELCQHLCINTVGSYHCACFPGFSLQDDGRTCRPEGHPPQPEAPQEPALKSEFSQVASNTIPLPLPQPNTCKDNGPCKQVCSTVGGSAICSCFPGYAIMADGVSCEDINECVTDLHTCSRGEHCVNTLGSFHCYKALTCEPGYALKDGECEDVDECAMGTHTCQPGFLCQNTKGSFYCQARQRCMDGFLQDPEGNCVDINECTSLSEPCRPGFSCINTVGSYTCQRNPLICARGYHASDDGTKCVDVNECETGVHRCGEGQVCHNLPGSYRCDCKAGFQRDAFGRGCIDVNECWASPGRLCQHTCENTLGSYRCSCASGFLLAADGKRCEDVNECEAQRCSQECANIYGSYQCYCRQGYQLAEDGHTCTDIDECAQGAGILCTFRCLNVPGSYQCACPEQGYTMTANGRSCKDVDECALGTHNCSEAETCHNIQGSFRCLRFECPPNYVQVSKTKCERTTCHDFLECQNSPARITHYQLNFQTGLLVPAHIFRIGPAPAFTGDTIALNIIKGNEEGYFGTRRLNAYTGVVYLQRAVLEPRDFALDVEMKLWRQGSVTTFLAKMHIFFTTFAL

Legend:
[1] = target: T1, HCV ORFs (Gal4-DB fusions) (Hepatitis C virus genotype 1b, UniProt Q9WMX2); format: binding, HCV genotype 1b, isolate con1; settings: human protein as prey
T1 construct: expressed in transfected cells; host or cells: Saccharomyces cerevisiae MAV203 (IMAP1) / AH109 (IMAP2)

[2] = system: HCV ORFs (Gal4-DB fusions); format: binding, HCV genotype 1b, isolate con1; settings: human protein listed by gene symbol; the value names the HCV protein it interacts with
[3] = target: T2, HCV proteins (Hepatitis C virus genotype 1b, UniProt Q9WMX2); assay: Validation by Y2H pairwise matrices; format: binding;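 also: yeast two-hybrid pairwise tests of interactions first found in Y2H screens of HCV bait proteins against human cDNA libraries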
T2 construct: expressed in transfected cells

[4] = validation of interaction with HCV protein NS3
[5] = validation of interaction with HCV protein CORE
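For IMAP Y2H IMAP1 (number of IST) in this document: yeast two-hybrid screens using HCV genotype 1b proteins fused to Gal4-DB as baits against prey cDNA libraries from human spleen and foetal brain, IMAP1 via transformation and IMAP2 via mating.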
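For Interaction with viral protein in this document: yeast two-hybrid screens using HCV genotype 1b proteins fused to Gal4-DB as baits against prey cDNA libraries from human spleen and foetal brain, IMAP1 via transformation and IMAP2 via mating.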

Molecule | IMAP Y2H IMAP1 (number of IST) ([1]; HCV protein NS3 as bait) | Interaction with viral protein [2] | Y2H matrices [3, 4] | IMAP Y2H IMAP1 (number of IST) ([1]; HCV protein CORE as bait) | IMAP Y2H IMAP1 (number of IST) ([1]; HCV protein NS2 as bait) | Y2H matrices [3, 5] | Y2H matrices ([3]; validation of interaction with HCV protein NS2) | IMAP Y2H IMAP1 (number of IST) ([1]; HCV protein p7 as bait) | Y2H matrices ([3]; interaction with HCV protein p7)
B1 | 3 | NS3 | + | – | – | – | – | – | –
B2 | 1 | NS3 | + | – | – | – | – | – | –
B3 | 32 | CORE and NS3 and NS2 | + | 1 | 1 | + | + | – | –
B4 | 1 | NS3 | + | – | – | – | – | – | –
B5 | 8 | NS3 | + | – | – | – | – | – | –
B6 | 6 | NS3 | + | – | – | – | – | – | –
B7 | 9 | CORE and NS3 | + | 1 | – | + | – | 1 | +
